Residue numbers refer to the chain shown, from its start. Starred links: 1 amine or outer side, 2 acyl side, 3 side chain; linkers in the order of their positions; H or OH if unused. Non-standard residues stand in square brackets, D forms with d. Groups on a side chain read outwards from the residue. No end group written: not given here. *: point of attachment. C20 diacid = O=C(O)CCCCCCCCCCCCCCCCCCC(=O)*; γGlu = O=C(O)[C@H](CCC(=O)[*:2])N[*:1]; αMeL = CC(C)C[C@](C)(N)C(=O)O; Orn = NCCC[C@H](N)C(=O)O; AEEA = NCCOCCOCC(=O)O; Aib = CC(C)(N)C(=O)O

Assay in all cases: cell-based or functional assay
The target of one assay is hGLP-1R (Homo sapiens, UniProt P43220).
In assay [1] the target is human glucagon receptor (human) (UniProt P47871).
The target in assay [2] is T1, human GIP receptor (human) (UniProt P48546).
T1 sequence (looked up): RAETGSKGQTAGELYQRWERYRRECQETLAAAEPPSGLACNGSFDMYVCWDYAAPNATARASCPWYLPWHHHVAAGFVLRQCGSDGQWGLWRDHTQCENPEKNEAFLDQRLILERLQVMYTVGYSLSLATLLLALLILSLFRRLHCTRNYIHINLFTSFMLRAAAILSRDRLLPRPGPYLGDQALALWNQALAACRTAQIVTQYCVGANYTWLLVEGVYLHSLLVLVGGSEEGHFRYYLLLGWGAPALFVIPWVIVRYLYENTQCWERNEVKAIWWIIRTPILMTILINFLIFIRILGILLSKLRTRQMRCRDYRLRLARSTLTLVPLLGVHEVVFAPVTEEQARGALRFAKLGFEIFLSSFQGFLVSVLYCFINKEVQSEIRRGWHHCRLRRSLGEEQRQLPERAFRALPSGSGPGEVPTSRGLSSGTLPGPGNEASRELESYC

Chain of human glucagon receptor (human) (P47871 26-477): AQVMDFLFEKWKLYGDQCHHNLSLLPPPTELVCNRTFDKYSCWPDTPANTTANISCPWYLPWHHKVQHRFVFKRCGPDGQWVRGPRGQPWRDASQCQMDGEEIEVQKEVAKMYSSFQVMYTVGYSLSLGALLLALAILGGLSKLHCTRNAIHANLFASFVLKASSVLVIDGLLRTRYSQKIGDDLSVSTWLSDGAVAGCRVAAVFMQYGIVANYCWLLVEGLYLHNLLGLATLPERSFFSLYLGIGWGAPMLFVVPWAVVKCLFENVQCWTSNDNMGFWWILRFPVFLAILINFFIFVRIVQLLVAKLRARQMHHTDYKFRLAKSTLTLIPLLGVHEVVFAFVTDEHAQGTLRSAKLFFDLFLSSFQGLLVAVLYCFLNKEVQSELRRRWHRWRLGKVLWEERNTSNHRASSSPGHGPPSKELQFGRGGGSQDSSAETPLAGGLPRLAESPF
Chain of hGLP-1R (P43220 24-463): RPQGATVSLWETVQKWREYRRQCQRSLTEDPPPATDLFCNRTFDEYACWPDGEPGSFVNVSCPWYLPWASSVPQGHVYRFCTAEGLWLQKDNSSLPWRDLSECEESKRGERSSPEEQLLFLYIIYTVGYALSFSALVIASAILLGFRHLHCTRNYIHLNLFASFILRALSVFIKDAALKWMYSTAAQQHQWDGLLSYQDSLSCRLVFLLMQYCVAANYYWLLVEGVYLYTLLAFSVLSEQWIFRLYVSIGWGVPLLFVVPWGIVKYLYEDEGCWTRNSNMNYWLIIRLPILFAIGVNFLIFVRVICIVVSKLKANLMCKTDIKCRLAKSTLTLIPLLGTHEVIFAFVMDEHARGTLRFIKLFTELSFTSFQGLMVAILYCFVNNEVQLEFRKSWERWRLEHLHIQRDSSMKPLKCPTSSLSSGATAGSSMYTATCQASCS

Turning to Y[Aib]QGTFTSDYSI[αMeL]LD[Orn]QAAK([AEEA-AEEA-γGlu-C20 diacid])QFVEWLLA[Aib]GPSSGEPPPSEG-NH2 [Example 328], the Relative cAMP EC50 is 1.3 nM with hGLP-1R, 10.3 nM in assay [1] and 0.544 nM in assay [2]. The values for the cAMP Rel EC50 (1% HSA) (with hGLP-1R; in assay [1]; in assay [2]) were 462 nM, 2040 nM and 91.1 nM, respectively.

B1: Example 682 (SEQ ID NO: 688) (peptide)
chain: YXQGTXTSDXSIXLDXKAQXXFIEXLIEGGPSSGEPPPSGE
modifications: synthetic construct; SITE 2: note = 2-Aminoisobutyric Acid; SITE 6: note = alpha-methyl-2-fluoro-L-phenylalanine; SITE 10: note = 3-(4-Pyridyl)-L-alanine; SITE 13: note = alpha-methyl-leucine; SITE 16: note = L-ornithine; SITE 17: note = Lysine is chemically modified through conjugation of the epsil
On to B1, for which the values for the Relative cAMP EC50 (with hGLP-1R; in assay [1]; in assay [2]) were 0.212 nM, 1.91 nM and 0.00661 nM, respectively.

B2: Example 660 (SEQ ID NO: 666) (peptide)
chain: YXQGTXTSDXSILLDKKAQXAFIEYLEEGGPSSGAPPPEGTGE
modifications: synthetic construct; SITE 2: note = 2-Aminoisobutyric Acid; SITE 6: note = alpha-methyl-2-fluoro-L-phenylalanine; SITE 10: note = 3-(4-Pyridyl)-L-alanine; SITE 17: note = Lysine is chemically modified through conjugation of the epsilon-amino group of the Lysine side chain with (gamma-Glu)2-CO-(CH2)1
B2: the results for the Relative cAMP EC50 (with hGLP-1R; in assay [1]; in assay [2]) were 1.27 nM, 7.38 nM and 0.0646 nM, respectively.

B3: Example 666 (SEQ ID NO: 672) (peptide)
chain: B2 chain with Y25X, E39S, T41S
modifications: synthetic construct; SITE 2: note = 2-Aminoisobutyric Acid; SITE 6: note = alpha-methyl-2-fluoro-L-phenylalanine; SITE 10: note = 3-(4-Pyridyl)-L-alanine; SITE 17: note = Lysine is chemically modified through conjugation of the epsilon-amino group of the Lysine side chain with (gamma-Glu)2-CO-(CH2)1
Regarding B3, the Relative cAMP EC50 with hGLP-1R came out at 0.337 nM; in assay [1], 2 nM; in assay [2] it was 0.0203 nM.

B4: Example 668 (SEQ ID NO: 674) (peptide)
chain: B2 chain with Y25X, E39S, T41G
modifications: synthetic construct; SITE 2: note = 2-Aminoisobutyric Acid; SITE 6: note = alpha-methyl-2-fluoro-L-phenylalanine; SITE 10: note = 3-(4-Pyridyl)-L-alanine; SITE 17: note = Lysine is chemically modified through conjugation of the epsilon-amino group of the Lysine side chain with (gamma-Glu)2-CO-(CH2)1
B4: the Relative cAMP EC50 in the assay with hGLP-1R came out at 0.325 nM; in assay [1], 2.03 nM; in assay [2], 0.0198 nM.

B5: Example 674 (SEQ ID NO: 680) (peptide)
chain: B2 chain with K16X, A21X, Y25X, E39S
modifications: synthetic construct; SITE 2: note = 2-Aminoisobutyric Acid; SITE 6: note = alpha-methyl-2-fluoro-L-phenylalanine; SITE 10: note = 3-(4-Pyridyl)-L-alanine; SITE 16: note = L-ornithine; SITE 17: note = Lysine is chemically modified through conjugation of the epsilon-amino group of the Lysine side chai
Consider B5, for which the Relative cAMP EC50 with hGLP-1R amounted to 0.21 nM; in assay [1], 2.09 nM; in assay [2], 0.0264 nM.

B6: Example 667 (SEQ ID NO: 673) (peptide)
chain: B2 chain with Y25X, E39S, T41E
modifications: synthetic construct; SITE 2: note = 2-Aminoisobutyric Acid; SITE 6: note = alpha-methyl-2-fluoro-L-phenylalanine; SITE 10: note = 3-(4-Pyridyl)-L-alanine; SITE 17: note = Lysine is chemically modified through conjugation of the epsilon-amino group of the Lysine side chain with (gamma-Glu)2-CO-(CH2)1
Consider B6, for which the Relative cAMP EC50 with hGLP-1R amounted to 0.42 nM; in assay [1], 2.34 nM; in assay [2], 0.0217 nM.

B7: Example 669 (SEQ ID NO: 675) (peptide)
chain: B2 chain with Y25X, E39S
modifications: synthetic construct; SITE 2: note = 2-Aminoisobutyric Acid; SITE 6: note = alpha-methyl-2-fluoro-L-phenylalanine; SITE 10: note = 3-(4-Pyridyl)-L-alanine; SITE 17: note = Lysine is chemically modified through conjugation of the epsilon-amino group of the Lysine side chain with (2-[2-(2-Amino-ethoxy))
B7: the Relative cAMP EC50 was determined as 0.27 nM in the assay with hGLP-1R, 1.76 nM in assay [1] and 0.0145 nM in assay [2].

B8: Example 662 (SEQ ID NO: 668) (peptide)
chain: B2 chain with E39S
modifications: synthetic construct; SITE 2: note = 2-Aminoisobutyric Acid; SITE 6: note = alpha-methyl-2-fluoro-L-phenylalanine; SITE 10: note = 3-(4-Pyridyl)-L-alanine; SITE 17: note = Lysine is chemically modified through conjugation of the epsilon-amino group of the Lysine side chain with (2-[2-(2-Amino-ethoxy))
As for B8, the Relative cAMP EC50 was found to be 0.946 nM in the assay with hGLP-1R, 4.81 nM in assay [1] and 0.0704 nM in assay [2].

B9: Example 663 (SEQ ID NO: 669) (peptide)
chain: B2 chain with E27X, E39S
modifications: synthetic construct; SITE 2: note = 2-Aminoisobutyric Acid; SITE 6: note = alpha-methyl-2-fluoro-L-phenylalanine; SITE 10: note = 3-(4-Pyridyl)-L-alanine; SITE 17: note = Lysine is chemically modified through conjugation of the epsilon-amino group of the Lysine side chain with (2-[2-(2-Amino-ethoxy))
On to B9, for which the Relative cAMP EC50 in the assay with hGLP-1R came to 1.29 nM; in assay [1] it was 1.95 nM; in assay [2] it was 0.0893 nM.

B10: Example 665 (SEQ ID NO: 671) (peptide)
chain: B2 chain with K16X, Y25X, E39S
modifications: synthetic construct; SITE 2: note = 2-Aminoisobutyric Acid; SITE 6: note = alpha-methyl-2-fluoro-L-phenylalanine; SITE 10: note = 3-(4-Pyridyl)-L-alanine; SITE 16: note = L-ornithine; SITE 17: note = Lysine is chemically modified through conjugation of the epsilon-amino group of the Lysine side chai
For the molecule B10, the Relative cAMP EC50 with hGLP-1R is 0.284 nM; in assay [1], 2.94 nM; in assay [2], 0.0223 nM.

B11: Example 664 (SEQ ID NO: 670) (peptide)
chain: B2 chain with Y25X, E39S
modifications: synthetic construct; SITE 2: note = 2-Aminoisobutyric Acid; SITE 6: note = alpha-methyl-2-fluoro-L-phenylalanine; SITE 10: note = 3-(4-Pyridyl)-L-alanine; SITE 17: note = Lysine is chemically modified through conjugation of the epsilon-amino group of the Lysine side chain with (gamma-Glu)2-CO-(CH2)1
Regarding B11, the Relative cAMP EC50 was determined as 0.356 nM with hGLP-1R, 2.12 nM in assay [1] and 0.0159 nM in assay [2].

B12: Example 661 (SEQ ID NO: 667) (peptide)
chain: B2 chain with E27X, E39S
modifications: synthetic construct; SITE 2: note = 2-Aminoisobutyric Acid; SITE 6: note = alpha-methyl-2-fluoro-L-phenylalanine; SITE 10: note = 3-(4-Pyridyl)-L-alanine; SITE 17: note = Lysine is chemically modified through conjugation of the epsilon-amino group of the Lysine side chain with (gamma-Glu)2-CO-(CH2)1
As to B12, the Relative cAMP EC50 with hGLP-1R was determined as 1.13 nM; in assay [1] it was 1.78 nM; in assay [2] it was 0.0665 nM.

The values are drawn from US20240270821A1, “GIP/GLP1/GCG TRI-RECEPTOR AGONISTS AND USES THEREOF” (priority 2023, published 2024).
